Measurements taken from paper PMC12403663.

B1: RBP4-binding aptamer (ssDNA)
DNA: ATACCAGCTTATTCAATTACAGTAGTGAGGGGTCCGTCGTGGGGTAGTTGGGTCGTGGAGATAGTAAGTGC
modifications: 5' Amino C6; 3' Thiol C6 SS

What was measured:
[1] = target: human serum albumin (HSA) (Homo sapiens, UniProt P02768 25-609); experiment: electrochemical aptasensor
[2] = target: retinol-binding protein 4 (RBP4, also printed RPB4) (UniProt P02753 19-201); experiment: electrochemical aptasensor

Chain of human serum albumin (HSA) (P02768 25-609): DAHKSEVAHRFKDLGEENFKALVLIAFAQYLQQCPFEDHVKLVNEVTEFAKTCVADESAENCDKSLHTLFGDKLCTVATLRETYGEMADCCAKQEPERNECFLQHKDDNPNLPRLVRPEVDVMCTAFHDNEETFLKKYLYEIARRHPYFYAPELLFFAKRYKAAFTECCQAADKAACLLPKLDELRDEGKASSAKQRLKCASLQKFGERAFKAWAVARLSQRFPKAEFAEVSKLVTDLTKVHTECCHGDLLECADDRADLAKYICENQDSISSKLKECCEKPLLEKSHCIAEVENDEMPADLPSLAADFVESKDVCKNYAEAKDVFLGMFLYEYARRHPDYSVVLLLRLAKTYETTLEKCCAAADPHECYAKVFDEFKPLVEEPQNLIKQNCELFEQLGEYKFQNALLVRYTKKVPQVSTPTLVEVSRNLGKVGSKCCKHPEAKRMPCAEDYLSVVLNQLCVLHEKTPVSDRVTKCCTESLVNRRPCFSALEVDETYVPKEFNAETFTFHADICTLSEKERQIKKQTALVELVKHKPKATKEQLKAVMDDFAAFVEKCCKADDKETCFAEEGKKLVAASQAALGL

| Binder | binding result [1] | binding result [2] |
| --- | --- | --- |
| TGCGGTTGTAGTACTCGTGGCCG (ssDNA, 5' Amino C6; 3' Thiol C6 SS) [HSA-binding aptamer] | binds |  |
| B1 |  | binds |
